Results on three substances are retold here after patent US20040216177A1, “Congenic rats containing a mutant GPR10 gene” (OTSUKA PHARMACEUTICAL CO., LTD., priority 2003, published 2004).

Where only a bound is given, the exact number is not on record here.

Experiment [1] concerns the target cloned human wild-type GPR10 (370 amino acids) (human) (UniProt P49683). Briefly: radioligand saturation binding on CHO-hGPR10 cell membranes, 2-site model, site 1.
The target is the same in experiment [2]. Briefly: saturation radioligand binding on CHO-hGPR10 cell membranes; non-specific binding determined with 1.0 uM unlabelled PrRP.
Experiment [3] shares this target. Briefly: radioligand saturation binding on CHO-hGPR10 cell membranes, 2-site model, site 2.
Experiment [4] shares this target. Briefly: radioligand saturation binding on CHO-hGPR10 cell membranes, at [125I]PrRP concentrations near the KD.
Experiment [5] deals with T1, cloned human wild-type GPR10 (Homo sapiens, UniProt P49683).
T1 construct: For cloning of human wild-type GPR10 ORF, a DNA fragment was amplified from human genomic DNA; expressed in transfected cells
T1 sequence (P49683 1-370): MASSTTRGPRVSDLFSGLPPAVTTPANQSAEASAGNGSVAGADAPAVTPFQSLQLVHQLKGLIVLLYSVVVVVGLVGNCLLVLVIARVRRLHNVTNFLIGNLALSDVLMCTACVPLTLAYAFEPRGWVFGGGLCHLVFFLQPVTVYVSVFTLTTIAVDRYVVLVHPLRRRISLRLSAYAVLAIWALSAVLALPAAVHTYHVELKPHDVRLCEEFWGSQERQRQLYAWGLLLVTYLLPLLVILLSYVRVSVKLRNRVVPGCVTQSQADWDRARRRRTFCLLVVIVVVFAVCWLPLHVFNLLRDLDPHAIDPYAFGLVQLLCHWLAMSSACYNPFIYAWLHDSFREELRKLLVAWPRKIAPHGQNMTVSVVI
Briefly: [3H]arachidonic acid release from CHO-hGPR10 cells. The class given is cell-based. The procedure: CHO cells stably expressing cloned human wild-type GPR10 (CHO-hGPR10 cells) were generated as described in Examples 2-3. CHO-hGPR10 were cultured in F-12 HAM medium supplemented with 2.0 mM L-glutamine, 10% (v/v) dialyzed fetal bovine serum, 1.0% hypoxanthine-thymidine supplement, and 1.0% G-418 selection agent. All of the cells were maintained at 37° C. in an atmosphere of 5% CO2 and passaged when ˜80% confluent using a non-enzymatic cell dissociation buffer (Sigma-Aldrich Corporation). CHO-hGPR10 cells were harvested when ˜70% confluent for use in [^3H]arachidonic acid release assays, which were performed as follows:
CHO-hGPR10 cells were plated at a density of 150,000 cells/well in 12 well tissue culture plates, rinsed 24 hr later with calcium and magnesium free Hank's Balanced Salt Solution (Gibco-BRL), and left to incubate for 4 hr in F-12 culture medium (1.0 ml/well) containing 100 nCi/ml of [^3H]arachidonic acid. The cells were then rinsed and incubated for 5 min in 1.0 ml/well of Hank's Balanced Salt Solution (Invitrogen Corp. CA) containing 20 mM HEPES buffer (Sigma-Aldrich Corp.) and 0.1% (w/v) fatty acid-free bovine serum albumin (Sigma-Aldrich Corp.). After repeating this rinse and incubation procedure 3 times, 1.0 ml of vehicle, PrRP or Compound X was added to each well and plates were left to incubate for 30 min at 37° C. 400 μl of the extracellular liquid present in each well was mixed with 2.6 ml of liquid scintillation cocktail and counted by liquid scintillation counting (1272 Clinigamma, LKB/Wallach) to calculate the total [^3H] radioactivity present in each well. All of the reactions were performed in triplicate, at concentrations in the 0.01 to 10,000 nM range, to determine the effects of PrRP and Compound X on basal [^3H]arachidonic acid release from CHO-hGPR10 cells. […]

Experiment [6] concerns the target T1, cloned human wild-type GPR10. Briefly: [125I]PrRP competition binding to CHO-hGPR10 cell membranes. The settings on record: 2-site competition model, site 2, 0.05 nM [125I]PrRP. The procedure:
Next, PrRP and compound X (molecular weight=318.38) were studied in quadruplicate at nanomolar to micromolar concentrations (PrRP at 0.01, 0.1, 0.5, 1, 5, 10, 50 and 100 nM; Compound X at 100, 300, 1000, 3000 and 10,000 nM) to determine their respective displacement of [^125I]PrRP (Amersham Biosciences UK Limited; catalog #IM341, Specific Activity=2000 Ci/mmol) binding to CHO-hGPR10 cell membranes. Membranes (20 μg protein) were incubated with 0.05 nM [^125I]PrRP, Compound X or vehicle, and buffer comprising 20 mM Tris (pH 7.4), 2.0 mM EGTA, 5.0 mM C4H6MgO4, 0.5 mM phenylmethylsulfonyl fluoride, 1.0 μg/ml pepstatin, 1.0 μl/ml protease inhibitor cocktail, and 0.1% (w/v) BSA. All of the reactions were performed in 96-well Basic Flashplates®, terminated by centrifugation (3,000 g×7 min) after a 90 min incubation at room temperature, and radioactive counts associated with membrane-bound [^125I]PrRP were counted in each well using a Microbeta TriLux microscintillation counter. Non-linear regression analysis of the competition binding data was used to calculate inhibition binding constants (IC50 and Ki), which is the concentration of Compound X that occupies half of the CHO-hGPR10 receptors specifically bound by 0.05 nM [^125I]PrRP. […]

The conditions of experiment [7]: rats; cited from earlier work.
The target in experiment [8] is T2, cloned human NH2-terminus truncated GPR10 (Homo sapiens, UniProt P49683, L65M).
T2 construct: expressed in transfected cells
T2 sequence (P49683 65-370 L65M limits assumed): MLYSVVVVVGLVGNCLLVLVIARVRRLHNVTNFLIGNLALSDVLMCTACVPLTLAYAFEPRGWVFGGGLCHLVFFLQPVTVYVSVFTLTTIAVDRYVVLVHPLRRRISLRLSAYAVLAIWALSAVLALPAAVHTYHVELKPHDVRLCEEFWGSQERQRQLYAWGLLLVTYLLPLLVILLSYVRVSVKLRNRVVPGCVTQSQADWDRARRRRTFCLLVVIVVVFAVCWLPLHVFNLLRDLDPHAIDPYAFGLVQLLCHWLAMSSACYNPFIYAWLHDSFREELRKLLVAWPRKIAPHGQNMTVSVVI
Briefly: [3H]arachidonic acid release from CHO-T-hGPR10 cells. The class given is cell-based. The procedure:
CHO cells were generated to stably express a cloned truncated form of the human GPR10, as described in Examples 2-3. These CHO-T-hGPR10 cells, which express a truncation of the first 64 amino acids present in the wild-type cloned human GPR10, were cultured in F-12 HAM medium, supplemented with 2.0 mM L-glutamine, 10% (v/v) dialyzed fetal bovine serum, 1.0% hypoxanthine-thymidine supplement and 1.0% G-418 selection agent. All of the cells were maintained at 37° C. in an atmosphere of 5% CO2 and passaged when ˜80% confluent using a non-enzymatic cell dissociation buffer (Sigma-Aldrich Corporation). CHO-T-hGPR10 cells were harvested when ˜70% confluent for use in [^3H]arachidonic acid release assays carried out as described below.
The effects of PrRP and Compound X on basal [^3H]arachidonic acid release from CHO-T-hGPR10 cells was performed using exactly the same assay procedure described in Example 7. PrRP and Compound X were each tested in triplicate at concentrations in the 0.01 to 10,000 nM range.
The mean radioactive counts (±SEM, N=3) detected in each reaction triplicate were calculated, and binding isotherms were analyzed by non-linear regression, using GraphPad Prism version 3.00 for Windows, to estimate the potency (EC50 with 95% confidence interval) and relative intrinsic activity (Emax as % basal release±SEM) of PrRP and Compound X. The results are shown in FIG. 19. […]

Experiment [9] has as its target cloned human wild-type GPR10 (370 amino acids) (human) (UniProt P49683). Briefly: displacement of 0.05 nM [125I]PrRP from CHO-hGPR10 cell membranes, 2-site competition model, site 2.
For experiment [10] the target is unchanged. Briefly: displacement of 0.05 nM [125I]PrRP from CHO-hGPR10 cell membranes, 2-site competition model, site 1.
Experiment [11] has the same target. Briefly: cell-based or functional assay.
Experiment [12] has as its target cloned human NH2-terminus truncated (mutant) GPR10 (306 amino acids) (human) (UniProt P49683). Briefly: cell-based or functional assay.

Consider “[^125I]PrRP (radioiodinated prolactin-releasing peptide)”, for which the figures for the Kd in [1] and in experiment [3] were 0.07 nM and 0.072 nM, respectively. This substance gave an EC50 (read off the curve) in [2] of 0.07 nM. The percent of total binding that was specific in [4] was more than 80%.
For the substance prolactin-releasing peptide [PrRP], the “Emax, relative intrinsic activity” value in experiment [5] (1.0 μM PrRP alone (Example 9)) was 75.3±6.1%. Besides, in experiment [5] (as % of 1 nM PrRP, tested alone), the “Emax, relative intrinsic activity” value was 105.4±6.1%. Moreover, in experiment [5] (tested alone), it took 0.043 nM to reach a half-maximal effect (EC50). In experiment [6], this substance displayed a Ki of 0.29 nM. In addition, the IC50 in [6] (read-out: IC50 (2) displacement of [125I]PrRP) stood at 0.5 nM. Further, in [7], the ACTH entry is given as “increase”, the body weight entry is “reduce”, the food intake entry is “reduce” and the plasma oxytocin result was “increase”. Also, the wakefulness result in experiment [7] was “promote wakefulness”. Also, the “Emax, relative intrinsic activity” value in [8] (1.0 nM PrRP alone, as % basal release) came out at 3.6±4.4%. In addition, the “activity on basal [3H]arachidonic acid release” value in experiment [8] (0.01 to 10,000 nM) is “inactive”.
Consider “PrRP (prolactin-releasing peptide), unlabelled”, for which, in experiment [9], the IC50 turned out to be 0.5 nM and the Ki was found to be 0.29 nM. In [10], this substance returned an IC50 of 0.0007 nM and a Ki of 0.0004 nM. In experiment [11], this substance came in with a [^3H]arachidonic acid release from CHO-hGPR10 cells, EC50 of 0.043 nM; a [^3H]arachidonic acid release from CHO-hGPR10 cells, Emax (as % 1.0 nM PrRP) of 75.3%; a [^3H]arachidonic acid release from CHO-hGPR10 cells, Emax (as a % of 1 nM PrRP) of 105%. This substance also registered a [^3H]arachidonic acid release from CHO-T-hGPR10 cells, Emax (as % basal release) in [12] of 3.6%.

As usually defined, the Kd is the constant that tells how readily two partners part at equilibrium. Higher therefore signals weaker binding. Broadly, the EC50 (read off the curve) is the midpoint of the concentration-response curve. A low value points to higher potency in that assay. In general, EC50 refers to the midpoint of the concentration-response curve. The low end stands for greater potency, the high end for weaker potency. Usually Ki stands for a measure of affinity in units of concentration, obtained from inhibition or displacement. The low end stands for tighter binding, the high end for weaker binding. One may read the IC50 as the concentration that inhibits the measured activity by half.
